B3: RafH (ribosome associated factor under hypoxia), M. smegmatis (natural protein, UniProt A0QZ86 1-258, looked up)
chain: MDVDVSTDGELPGAAEYAREKIGRLSRRAHRPVLHARVRLTRHGDPAVERPVIAQANLDVNGRQVRAQVEGVNAREAVDRLEARLRSRLERIAEHWEARRGGVPAEAGREWRHESEPARRPGYFPRPPEERRIIRRKSFSMVPCTVDEAALEMEMLDYDFHLFTEKGTGFAAVLYKGGPTGYRLVLVIPVPADELSPFEKPITISTHPAPCLTQRDAVERLGLLGLPFLFYIDAAEGRASVIYRRYDGHYGLITPADG
notes: RafH of M. smegmatis, gene MSMEG_3935, 258 amino acid residues (~30 kDa): NTD 1-100, linker 101-130, CTD 131-258; gene synthesised (GenScript) and cloned in pET-28a(+); the methods say only that the gene MSMEG_3935 was cloned; also called MSMEG_3935; source: E. coli C41(DE3), purified (Ni-NTA, size-exclusion chromatography)

Assay [1] addresses T1, bacterial ribosomal protein bS1, M. smegmatis (M. smegmatis, UniProt A0QYY6 1-479).
T1 construct: ribosomal protein bS1 of M. smegmatis; only the two N-terminal domains OB1 and OB2 are visible in the map, the rest is disordered; Stood in the assay as a part of the 70S ribosome; the model was begun from AlphaFold2 and docked in the map; also called bS1 r-protein; source: endogenous, in ribosomes purified from M. smegmatis MC2 155
T1 sequence (looked up): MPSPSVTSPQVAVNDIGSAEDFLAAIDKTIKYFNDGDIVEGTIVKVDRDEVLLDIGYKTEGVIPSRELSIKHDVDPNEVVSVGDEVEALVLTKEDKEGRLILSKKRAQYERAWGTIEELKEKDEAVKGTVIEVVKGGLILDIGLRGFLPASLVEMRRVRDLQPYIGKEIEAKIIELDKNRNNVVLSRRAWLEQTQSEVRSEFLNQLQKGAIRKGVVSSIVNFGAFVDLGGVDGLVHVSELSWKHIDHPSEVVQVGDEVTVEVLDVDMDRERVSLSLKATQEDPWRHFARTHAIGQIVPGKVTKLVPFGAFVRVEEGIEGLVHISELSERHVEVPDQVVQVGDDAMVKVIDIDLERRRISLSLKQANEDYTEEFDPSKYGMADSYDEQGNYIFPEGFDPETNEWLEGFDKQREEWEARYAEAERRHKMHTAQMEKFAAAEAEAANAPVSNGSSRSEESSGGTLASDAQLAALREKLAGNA
Briefly: cryo-EM structure; single particle cryo-EM of the in-vitro reconstituted 70S ribosome RafH complex (Titan Krios 300 kV, Falcon 3, Relion 3.1.4); overall 2.8 Å; maps with bS1 or E-site tRNA low pass filtered to 3.5 Å. Conditions: both partners purified.

Assay [2] deals with B3. The assay is described as above. As to conditions: both partners purified.

B1: ribosomal protein uS2, M. smegmatis (natural protein, UniProt A0QVB8 1-277, looked up)
chain: MAVVTMKQLLDSGAHFGHQTRRWNPKMKRFIFTDRNGIYIIDLQQTLTYIDKAYEFVKETVAHGGTVLFVGTKKQAQESIAEEATRVGMPYVNQRWLGGMLTNFSTVHKRLQRLKELEAMEQTGGFEGRTKKEILMLTREKNKLERSLGGIRDMQKVPSAVWVVDTNKEHIAVGEARKLGIPVIAILDTNCDPDVVDYPIPGNDDAIRSAALLTKVIASAVAEGLQARAGQGSGEKPAEGAEPLAEWEQELLAGATAGAADASAEGAAAPESSTDAS
notes: ribosomal protein uS2 of M. smegmatis; Stood in the assay as a part of the 70S ribosome; also called uS2 r-protein; source: endogenous, in ribosomes purified from M. smegmatis MC2 155
Consider B1, for which the binding result in assay [1] is on record as “binds”.

B2: ribosomal protein uS11, M. smegmatis (natural protein)
chain: not shown
notes: ribosomal protein uS11 of M. smegmatis; Stood in the assay as a part of the 70S ribosome; also called uS11 r-protein; source: endogenous, in ribosomes purified from M. smegmatis MC2 155
Turning to B2, the binding result in assay [2] is reported as “binds”.
As to B3, the binding result in assay [1] was “binds”.

B4: ribosomal protein uS9, M. smegmatis (natural protein, UniProt A0QSP9 1-150, looked up)
chain: MTDVTETEVVTESAEPREPVIIDRPIQTVGRRKEAVVRVRLVPGTGQFNLDGRTLENYFPNKVHQQLIKAPLVTVDRVDQFDIYAHLDGGGPSGQAGALRLAIARALILVQPEDRPALKKAGFLTRDPRAIERKKYGLKKARKAPQYSKR
notes: ribosomal protein uS9 of M. smegmatis; C-terminal residue R150; Stood in the assay as a part of the 70S ribosome; also called r-protein uS9; source: endogenous, in ribosomes purified from M. smegmatis MC2 155
B4: the binding result in assay [2] is recorded as “binds”.

The record behind these values is article PMC10799931, “Cryo- EM structure of the mycobacterial 70S ribosome in complex with ribosome hibernation promotion factor RafH” (Nature Communications, 2024).
